Test results reported in patent publication US20040219637A1.

What was measured:
[1] = biological target: Crotalus durissus terrificus venom; test: ELISA, venom coat, dilution 1:625
[2] = biological target: Crotalus durissus terrificus venom; test: ELISA, venom coat, dilution 1:3125
[3] = biological target: Crotalus durissus terrificus venom; test: ELISA, venom coat, dilution 1:62,500
[4] = biological target: Crotalus durissus terrificus venom; test: ELISA, venom coat, undiluted
[5] = biological target: Crotalus durissus terrificus venom; test: ELISA, venom coat, dilution 1:5
[6] = biological target: Crotalus durissus terrificus venom; test: ELISA, venom coat, dilution 1:125
[7] = biological target: Crotalus durissus terrificus venom; test: ELISA, venom coat, dilution 1:25
[8] = biological target: Crotalus durissus terrificus venom; test: ELISA, venom coat, dilution 1:25; remark: listed apart in the source
[9] = biological target: Crotalus durissus terrificus venom; test: ELISA, venom coat, dilution 1:3125; remark: listed apart in the source
[10] = biological target: Crotalus durissus terrificus venom; test: ELISA, venom coat, dilution 1:312,500
[11] = biological target: Crotalus durissus terrificus venom; test: ELISA, venom coat, dilution 1:125; remark: listed apart in the source
[12] = biological target: Crotalus durissus terrificus venom; test: ELISA, venom coat, dilution 1:625; remark: listed apart in the source

Substance: Preimmune IgY (egg yolk antibody of unimmunized hens)
- ELISA absorbance [1]: 0 absorbance
- ELISA absorbance [2]: < 0 absorbance
- ELISA absorbance (412 nm) [3]: 0.001 absorbance
- ELISA absorbance [4]: 0.003 absorbance
- ELISA absorbance [5]: < 0 absorbance
- ELISA absorbance [6]: < 0 absorbance
- ELISA absorbance [7]: 0.016 absorbance
- ELISA absorbance [8]: 0 absorbance
- ELISA absorbance [9]: 0.002 absorbance
- ELISA absorbance (412 nm) [10]: 0.01 absorbance
- ELISA absorbance [11]: 0.003 absorbance
- ELISA absorbance [12]: < 0 absorbance
